The experiment addresses T1, hVEGFR3-hFc (human, UniProt P35916 25-775).
T1 construct: human VEGFR3; source: bought: R&D Systems
T1 sequence (looked up): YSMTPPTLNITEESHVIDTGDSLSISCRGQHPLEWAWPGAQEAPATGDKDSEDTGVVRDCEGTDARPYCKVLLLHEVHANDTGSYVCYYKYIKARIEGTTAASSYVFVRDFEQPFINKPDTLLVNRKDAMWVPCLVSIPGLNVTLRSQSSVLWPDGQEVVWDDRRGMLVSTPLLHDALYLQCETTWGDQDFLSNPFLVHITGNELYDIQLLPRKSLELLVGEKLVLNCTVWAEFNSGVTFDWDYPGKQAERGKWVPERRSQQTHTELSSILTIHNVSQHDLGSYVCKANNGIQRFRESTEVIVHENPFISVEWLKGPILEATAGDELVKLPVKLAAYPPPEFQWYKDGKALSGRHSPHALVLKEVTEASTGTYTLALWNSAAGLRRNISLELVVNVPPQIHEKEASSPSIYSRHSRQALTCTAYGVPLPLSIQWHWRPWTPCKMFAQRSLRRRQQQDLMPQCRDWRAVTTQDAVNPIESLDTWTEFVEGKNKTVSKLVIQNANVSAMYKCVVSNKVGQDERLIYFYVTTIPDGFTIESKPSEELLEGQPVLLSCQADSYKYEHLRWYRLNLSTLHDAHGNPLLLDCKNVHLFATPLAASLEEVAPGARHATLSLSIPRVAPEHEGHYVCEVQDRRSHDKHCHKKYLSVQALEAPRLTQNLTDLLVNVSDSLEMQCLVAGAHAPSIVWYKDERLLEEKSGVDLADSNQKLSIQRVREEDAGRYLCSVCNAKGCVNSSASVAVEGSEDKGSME
The experiment can be described thus: SPR; Biacore 3000, CM5 chip, 25°C, HBS-T (10 mM Hepes, 150 mM NaCl, 3.4 mM EDTA, 0.05% polysorbate 20, pH 7.4); VEGF Trap or receptor-Fc captured at low density on amine-coupled Protein A, ligands injected (1.0–0.062 nM VEGF-A, 2.5–0.156 nM VEGF-B(10-108), 5.0–0.078 nM PlGF); kd of VEGF-A ligands by the 'fixed kd' procedure on a Biacore 2000 (~2–3 h); KD = kd/ka. The note with it: both partners purified.

B1: human VEGF-D (ligand, UniProt O43915 89-205, looked up)
chain: FAATFYDIETLKVIDEEWQRTQCSPRETCVEVASELGKSTNTFFKPPCVNVFRCGGCCNEESLICMNTSTSYISKQLFEISVPLTSVPELVPVKVANHTGCKCLPTAPRHPYSIIRR
notes: human VEGF-D; source: bought: R&D Systems
Turning to B1, the binding result is on record as “binds”.

B2: human VEGF-C (ligand, UniProt P49767 112-227, looked up)
chain: AHYNTEILKSIDNEWRKTQCMPREVCIDVGKEFGVATNTFFKPPCVSVYRCGGCCNSEGLQCMNTSTSYLSKTLFEITVPLSQGPKPVTISFANHTSCRCMSKLDVYRQVHSIIRR
notes: human VEGF-C; source: bought: R&D Systems
B2: the binding result is “binds”.

The record behind these values is publication PMC3338918 (Angiogenesis, 2012).
